Assay [1] has as its target T1, VEGFR2-His (residues 1-764 of VEGFR2, Ig-like domains 1-7, with hexahistidine tag) (human, UniProt P35968 20-764).
T1 construct: range 1-764; Monomeric form, expressed in FreeStyle 293-F cells; also called VEGFR-His
Kind of assay: yeast surface display titration, flow cytometry. How it is done: (§1) Cells were incubated in large enough volumes to avoid ligand depletion and appropriate time to reach equilibrium. During the last hour of incubation, yeast were incubated with 1:250 dilution of chicken anti-c-Myc (Invitrogen) in PBSA. […] Yeast were washed, pelleted, and resuspended in PBSA immediately before analysis by flow cytometry using BD FACSCalibur or BD Accuri C6. Flow cytometry data were analyzed using FlowJo (v7.6.1 and v10, Treestar) or BD Accuri C6 software. Statistical analysis was performed using GraphPad Prism 6.

In assay [2] the target is T2, soluble VEGFR2 (Fc or His format not stated for the experiment) (human, UniProt P35968 20-764).
T2 construct: extracellular domain
T2 sequence (P35968 20-764): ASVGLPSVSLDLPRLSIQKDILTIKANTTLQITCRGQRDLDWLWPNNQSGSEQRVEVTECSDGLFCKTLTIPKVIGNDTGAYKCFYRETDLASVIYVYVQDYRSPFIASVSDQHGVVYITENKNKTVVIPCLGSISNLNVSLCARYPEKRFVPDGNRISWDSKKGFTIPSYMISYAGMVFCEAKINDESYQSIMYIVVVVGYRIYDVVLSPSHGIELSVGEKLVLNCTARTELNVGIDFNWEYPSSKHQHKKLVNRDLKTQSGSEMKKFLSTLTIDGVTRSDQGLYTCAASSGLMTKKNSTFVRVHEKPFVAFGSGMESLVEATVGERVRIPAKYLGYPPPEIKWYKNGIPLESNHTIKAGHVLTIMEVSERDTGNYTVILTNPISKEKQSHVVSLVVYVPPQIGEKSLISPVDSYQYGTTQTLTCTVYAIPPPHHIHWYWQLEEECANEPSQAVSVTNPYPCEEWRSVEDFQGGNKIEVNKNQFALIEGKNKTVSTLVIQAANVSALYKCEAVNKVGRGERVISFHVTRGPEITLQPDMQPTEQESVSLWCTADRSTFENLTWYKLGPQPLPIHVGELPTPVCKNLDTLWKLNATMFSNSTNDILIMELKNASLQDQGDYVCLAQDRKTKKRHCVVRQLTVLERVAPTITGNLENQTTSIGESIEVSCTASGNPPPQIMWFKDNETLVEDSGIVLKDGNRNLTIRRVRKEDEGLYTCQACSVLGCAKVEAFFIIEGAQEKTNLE
Kind of assay: yeast surface display titration; table under the panel 'VEGFR binding', Fc or His form not given.

Assay [3] addresses T3, VEGFR2-Fc (R&D Systems) (human, UniProt P35968 20-764).
T3 construct: extracellular domain; Bought reagent; also called VEGFR-Fc; not shown: Fc part, detected with anti-human-IgG (Fc specific)
Kind of assay: yeast surface display, flow cytometry titration of VEGFR2-Fc. Here is the method: as §1

Assay [4] concerns the target T1, VEGFR2-His (residues 1-764 of VEGFR2, …). Kind of assay: KinExA Kinetics Injection. How it is done: (§2) Additionally, the kinetic parameter kₒₙ can be determined by using a “kinetics injection” experiment. A constant concentration of PDGF/VEGF ligand is injected with an equal volume of differing concentrations of PDGRβ-His or VEGFR2-His. The two solutions are allowed to mix briefly (several seconds) in the time required for the instrument to deliver the mixture to the detection bead column. The pre-equilibrium concentrations of free ligand is fit to the standard bimolecular rate equation to obtain kₒₙ.
(§3) Kinetic Exclusion Assay (KinExA). All experiments were performed on a KinExA 3200 instrument with siliconized flow cell (Sapidyne Instruments Inc). […] 30 μg of receptor was incubated in 1 ml of 50 mM sodium bicarbonate, 0.5 M sodium citrate buffer, pH 8.3, for 2 hr at room temperature with rocking. Beads were allowed to settle by gravity and liquid removed. Beads were blocked by incubating in 1 ml of 10 mg/ml BSA in 1 M Tris buffer, pH 8.0, for 1 hr at room temperature with rocking, and stored in blocking buffer at 4° C. for up to one week until use. Running buffer contained PBS with 10 mM imidazole and 0.02% sodium azide. Samples were prepared in running buffer with 1 mg/ml BSA. Binding reactions were prepared with a fixed concentration of PDGF/VEGF ligands and dilution series of PDGFR or VEGFR. Captured PDGF/VEGF ligands were detected using a Dylight 649-conjugated anti-FLAG antibody (Rockland) at 1:1000 dilution in sample buffer. Kinetic experiments were performed with the “Kinetics Injection” method defined in the KinExA software. Data were analyzed with KinExA Pro Software. The Kd was determined from a global fit of two concentration curves using the “n-curve analysis” tool and the titrant concentrations as reference. […] The kₒₙ was calculated as a fit of the pre-equilibrium free ligand concentrations to the bimolecular binding equation using the “Kinetics Injection” tool.
(In general: In KinExA the mixture passes briefly over coated beads that capture the unbound partner.)

The target in assay [5] is T4, PDGFRβ-His (residues 1-314 of PDGFR-β with C-terminal hexahistidine tag) (human, UniProt P09619 33-314).
T4 construct: range 1-314; Monovalent form, expressed in FreeStyle 293-F cells; also called PDGRβ-His; PDGFR-His
Kind of assay: KinExA Kinetics Injection. Here is the method: as §2, §3

Assay [6] deals with T5, human VEGFR on human umbilical vein endothelial cells (HUVECs) (human, UniProt P35968 20-1356).
T5 construct: The phosphorylation blots on these cells detect VEGFR2
T5 sequence (P35968 20-1356 limits assumed): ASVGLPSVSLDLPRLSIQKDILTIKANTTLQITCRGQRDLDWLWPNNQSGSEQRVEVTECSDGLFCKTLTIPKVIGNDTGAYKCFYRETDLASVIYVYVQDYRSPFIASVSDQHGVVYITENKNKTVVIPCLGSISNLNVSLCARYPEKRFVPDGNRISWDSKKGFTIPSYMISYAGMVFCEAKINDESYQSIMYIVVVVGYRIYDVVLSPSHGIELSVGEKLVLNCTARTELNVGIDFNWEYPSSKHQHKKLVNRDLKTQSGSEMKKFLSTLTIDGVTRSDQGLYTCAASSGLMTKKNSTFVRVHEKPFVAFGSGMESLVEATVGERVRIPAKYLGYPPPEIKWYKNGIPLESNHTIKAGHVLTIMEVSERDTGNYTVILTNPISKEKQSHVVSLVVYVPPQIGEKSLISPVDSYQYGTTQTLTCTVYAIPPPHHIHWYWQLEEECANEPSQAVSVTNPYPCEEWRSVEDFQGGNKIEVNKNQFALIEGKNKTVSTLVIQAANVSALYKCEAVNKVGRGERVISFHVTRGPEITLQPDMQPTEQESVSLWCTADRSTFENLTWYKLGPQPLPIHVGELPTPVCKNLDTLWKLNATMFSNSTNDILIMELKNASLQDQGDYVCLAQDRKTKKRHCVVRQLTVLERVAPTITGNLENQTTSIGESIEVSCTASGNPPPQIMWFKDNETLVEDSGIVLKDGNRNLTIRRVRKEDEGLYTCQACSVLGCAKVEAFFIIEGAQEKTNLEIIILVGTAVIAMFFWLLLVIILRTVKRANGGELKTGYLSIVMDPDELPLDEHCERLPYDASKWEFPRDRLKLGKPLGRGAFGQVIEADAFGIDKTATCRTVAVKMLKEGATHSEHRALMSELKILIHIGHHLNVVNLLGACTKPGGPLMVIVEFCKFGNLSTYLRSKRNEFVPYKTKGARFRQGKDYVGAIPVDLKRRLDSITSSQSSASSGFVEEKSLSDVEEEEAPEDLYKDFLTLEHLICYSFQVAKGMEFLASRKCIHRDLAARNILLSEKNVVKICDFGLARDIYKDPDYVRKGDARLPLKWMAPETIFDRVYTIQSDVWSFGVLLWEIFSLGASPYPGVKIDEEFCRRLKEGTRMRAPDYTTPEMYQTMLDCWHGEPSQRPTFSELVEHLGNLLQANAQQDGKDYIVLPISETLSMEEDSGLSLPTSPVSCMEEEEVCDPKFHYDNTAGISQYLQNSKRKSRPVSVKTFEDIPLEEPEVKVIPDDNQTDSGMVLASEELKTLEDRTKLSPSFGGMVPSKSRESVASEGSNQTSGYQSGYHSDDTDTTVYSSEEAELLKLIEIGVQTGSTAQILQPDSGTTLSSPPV
Kind of assay: flow cytometry on HUVECs, soluble ligand titrated 3 h at 4 C, anti-FLAG-PE. How it is done: (§4) To test binding to VEGFR, human umbilical vein endothelial cells (HUVECs) and murine angiosarcoma endothelial cells (SVR) were used.
(§5) Cell-binding assay. Varying concentrations of scPDGF, scVEGF, and PDGF/VEGF ligands were incubated with 25,000 PDGFR- or VEGFR-expressing cells in binding buffer (20 mM Tris pH 7.5 with 1 mM MgCl₂, 1 mM MnCl₂, 2 mM CaCl₂, 100 mM NaCl, and 1 mg/ml BSA) for 5 hr (BJ-5ta, NIH/3T3) or 3 hr (HUVEC, SVR) at 4° C. Cells were washed and pelleted, then incubated with 1:100 R-PE-conjugated anti-FLAG antibody (Prozyme) for 15 min on ice. Cells were washed, pelleted, and resuspended in binding buffer immediately before analysis by flow cytometry using BD Accuri C6. Flow cytometry data were analyzed using BD Accuri C6 software, and statistical analysis was performed using GraphPad Prism 6.
On the technique in general: In flow cytometry, cells or beads pass a laser one at a time.

The target in assay [7] is T1, VEGFR2-His (residues 1-764 of VEGFR2, …). The experiment in a line: KinExA, calculated from Kd and kon. Here is the method:
(§6) By performing two experiments with fixed ligand concentrations above and below the Kd, and fitting both sets of data with a nonlinear regression analysis, a more accurate measurement for the affinity can be obtained.
as §2, §3

Assay [8] deals with T4, PDGFRβ-His (residues 1-314 of PDGFR-β …). Kind of assay: KinExA, calculated from Kd and kon. How it is done:
as §6, §2, §3

The target of assay [9] is T5, human VEGFR on human umbilical vein …. The experiment in a line: flow cytometry titration of the soluble FLAG-tagged protein on HUVECs, anti-FLAG detection. How it is done:
as §4, §5

Assay [10] concerns the target T1, VEGFR2-His (residues 1-764 of VEGFR2, …). Kind of assay: KinExA, equilibrium titration in solution, n-curve analysis. How it is done: (§7) For KinExA measurements, a constant amount of PDGF/VEGF ligand is titrated with differing concentrations of PDGRβ-His or VEGFR2-His. The solutions are incubated for an appropriate amount of time to allow the ligand-receptor binding reaction to reach equilibrium. The solution is then briefly exposed to a solid support containing immobilized PDGFR or VEGFR, which captures unbound ligand. The amount of ligand bound to the solid support is then detected using a fluorescently-labeled antibody. […] For each binding interaction measured, curves for two concentrations of the constant ligand are performed. By performing two experiments with fixed ligand concentrations above and below the Kd, and fitting both sets of data with a nonlinear regression analysis, a more accurate measurement for the affinity can be obtained.
(§8) Kinetic Exclusion Assay (KinExA). All experiments were performed on a KinExA 3200 instrument with siliconized flow cell (Sapidyne Instruments Inc). […] 30 μg of receptor was incubated in 1 ml of 50 mM sodium bicarbonate, 0.5 M sodium citrate buffer, pH 8.3, for 2 hr at room temperature with rocking. Beads were allowed to settle by gravity and liquid removed. Beads were blocked by incubating in 1 ml of 10 mg/ml BSA in 1 M Tris buffer, pH 8.0, for 1 hr at room temperature with rocking, and stored in blocking buffer at 4° C. for up to one week until use. Running buffer contained PBS with 10 mM imidazole and 0.02% sodium azide. Samples were prepared in running buffer with 1 mg/ml BSA. Binding reactions were prepared with a fixed concentration of PDGF/VEGF ligands and dilution series of PDGFR or VEGFR. Captured PDGF/VEGF ligands were detected using a Dylight 649-conjugated anti-FLAG antibody (Rockland) at 1:1000 dilution in sample buffer. Kinetic experiments were performed with the “Kinetics Injection” method defined in the KinExA software. Data were analyzed with KinExA Pro Software.

For assay [11], the target named is T4, PDGFRβ-His (residues 1-314 of PDGFR-β …). The description is as above. Here is the method:
as §7, §8

Assay [12] concerns the target T1, VEGFR2-His (residues 1-764 of VEGFR2, …). The experiment in a line: yeast surface display titration, flow cytometry. How it is done: as §1
This is another data set of the same source.

Assay [13] concerns the target T4, PDGFRβ-His (residues 1-314 of PDGFR-β …). Kind of assay: yeast surface display titration, flow cytometry. Here is the method:
as §1

Assay [14] deals with T1, VEGFR2-His (residues 1-764 of VEGFR2, …). The experiment in a line: yeast surface display, flow cytometry equilibrium titration of VEGFR2-His, normalized fluorescence. Here is the method: as §1
Assay [15] deals with T4, PDGFRβ-His (residues 1-314 of PDGFR-β …). The experiment in a line: yeast surface display, flow cytometry equilibrium titration of PDGFRβ-His (panel 'PDGFR-His'), normalized fluorescence. Here is the method: as §1
The target of assay [16] is T2, soluble VEGFR2 (Fc or His format not …). Kind of assay: yeast surface display, flow cytometry dot plot: soluble receptor bound (FL1) against surface expression (FL2); receptor concentration not given.

T1 sequence (P35968 other isoform, or with tags, fused parts or gaps limits assumed, form in doubt): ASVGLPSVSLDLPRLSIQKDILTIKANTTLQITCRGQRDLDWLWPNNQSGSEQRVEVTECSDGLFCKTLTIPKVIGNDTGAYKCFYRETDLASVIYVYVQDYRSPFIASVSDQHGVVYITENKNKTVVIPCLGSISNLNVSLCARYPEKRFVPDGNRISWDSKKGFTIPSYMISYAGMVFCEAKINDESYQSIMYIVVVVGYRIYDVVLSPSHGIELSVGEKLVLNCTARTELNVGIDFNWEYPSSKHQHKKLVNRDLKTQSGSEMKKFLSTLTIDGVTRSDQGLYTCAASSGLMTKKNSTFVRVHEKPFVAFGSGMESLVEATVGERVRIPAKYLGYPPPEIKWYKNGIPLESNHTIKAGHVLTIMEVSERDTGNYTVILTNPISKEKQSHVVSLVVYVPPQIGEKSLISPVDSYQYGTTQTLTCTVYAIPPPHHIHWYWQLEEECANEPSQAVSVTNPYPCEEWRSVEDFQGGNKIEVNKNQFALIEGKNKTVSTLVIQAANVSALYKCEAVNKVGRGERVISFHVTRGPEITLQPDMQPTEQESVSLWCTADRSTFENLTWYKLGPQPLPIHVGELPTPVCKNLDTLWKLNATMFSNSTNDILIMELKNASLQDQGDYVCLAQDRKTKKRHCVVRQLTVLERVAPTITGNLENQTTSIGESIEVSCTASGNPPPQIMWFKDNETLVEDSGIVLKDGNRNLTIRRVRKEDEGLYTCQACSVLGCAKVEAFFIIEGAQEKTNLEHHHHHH
T3 sequence (P35968 20-764): as the sequence (P35968 20-764) above

B1: V4-22 (PV6 with F20L, E28G, Q71R, D160H), yeast-displayed (designed binder)
chain: IAEPAMIAECHPIETLVDILQEYPDEIGYIFKPSCVPLMRCGGCCNNRNVQCRPTEESNITMQIMRIKPHRGQHIGEMSFLQHNKCKCETVAAGSTSGSGKSSEGKGEVVKFMDVYQRSYCKTRTEVFEISRRLIDRTNANFLVWPPCVEVQRCSGCCNHEGLECVPTQVQLRPVQVRKIEIVRKKPIFKKATVTLEDHLACECRPKKD
notes: Variant from the Vshuf library
The term Kd denotes a measure of binding affinity in units of concentration. B1: the Kd was found to be 1.3 nM in assay [1] and 1.9 nM in assay [2].

B2: V5-5, yeast-displayed variant from the Vshuf library (designed binder)
chain: IAEPAVIAECHPIETLVDILQEYPDEIGYIFKPSCVPLMRCGGCCNNRNVQCRPTEESNITMQIMRIKPHRGQHIGEMSFLQHNKCKCETVAAGSTSGSGKSSEGKGEVVKFMDVYQRSYCKTRTEVFEISRRLIDRTNANFLVWPPCVEVQRCSGCCNHEGLECVPTQVQLRPVQVRKIEIVRKKPIFKKATVTLEDHLACECRPKKV
On to B2, for which the binding result in [3] is “binds”.

B3: PV6 PDGF/VEGF chimera, soluble, N-terminal FLAG and C-terminal hexahistidine tags (designed binder)
chain: DYKDDDDKIAEPAMIAECHPIETLVDIFQEYPDEIEYIFKPSCVPLMRCGGCCNNRNVQCRPTEESNITMQIMRIKPHQGQHIGEMSFLQHNKCKCETVAAGSTSGSGKSSEGKGEVVKFMDVYQRSYCKTRTEVFEISRRLIDRTNANFLVWPPCVEVQRCSGCCNDEGLECVPTQVQLRPVQVRKIEIVRKKPIFKKATVTLEDHLACKCRPKKDHHHHHH
notes: Secreted from S. cerevisiae YVH10 and treated with Endo Hf; also called soluble PV6
The term kon denotes a measure of how fast the partners come together. One may read the koff as the rate constant with which the complex falls apart. In general, EC50 (read off the curve) refers to the concentration needed to bring the measured effect to its halfway point. As to B3, the kon in [4] came to 240000 M⁻¹ s⁻¹; in assay [5], 2.2e+07 M⁻¹ s⁻¹. Besides, the figures for the Kd in assay [6], in assay [10] and in assay [11] were 11 nM, 38 nM and 0.87 nM, respectively. The off-rate constant (koff) in [7] is 0.0092 s⁻¹; in [8], 0.019 s⁻¹. In addition, the “EC50 (read off the curve)” value in assay [9] is approximately 10 nM.

B4: PVGS, yeast-displayed (designed binder)
chain: IAEPAMIAECHPIETLVDILQEYPDEIGYIFKPSCVPLMRCGGCCNNRNVQCRPTEESNITMQIMRIKPHRGQHIGEMSFLQHNKCRCETVAAGGGGSGGGGSGGGGSGGGGSEVVKFMDVYQRSYCKTRTEVFEISRRLIDATNANFLVWPPCVEVQRCSGCCNHEGLECVPTQVQLRPVQVRKIEFVRKKPIFKKATVTLEDHLACECRPKKD
Consider B4, for which the dissociation constant Kd turned out to be 1.1 nM in [12] and 0.25 nM in assay [13]. Moreover, the “EC50 (read off the curve)” value in [14] was approximately 1 nM; in assay [15] it was approximately 0.3 nM.

B5: PV1 PDGF/VEGF hybrid construct, yeast-displayed (designed binder)
chain: IAEPAMIAECKTRETLVDIFQEYPDEIEYIFKPSCVPLMRCSGCCNNRNVQCRPTEESNITMQIMRIKPHQGQHIGEMSFLQHLACKCETVAAGSTSGSGKSSEGKGEVVKFMDVYQRSYCHPITEVFEISRRLIDRTNANFLVWPPCVEVQRCGGCCNDEGLECVPTQVQLRPVQVRKIEIVRKKPIFKKATVTLEDHNKCECRPKKD
For the molecule B5, the binding result in assay [16] was “binds”.

(Values after patent publication US20180111972A1 (Stanford University, published 2018).)
